Results from paper PMC4329188, “Expression, purification, crystallization, and preliminary X-ray crystallographic studies of the human adiponectin receptors, AdipoR1 and AdipoR2” (Journal of Structural and Functional Genomics, 2015).

Target: T1, purified AdipoR1Δ88 (human adiponectin receptor 1, residues 89–375), as used for SPR and antibody screening (human, UniProt Q96A54 89-375)
T1 construct: adiponectin receptor 1 (AdipoR1), human, residues 89-375 (N-terminally truncated mutant Δ88); Same construct as m1; SDS-denatured in the dot blot; source: Trichoplusia ni (High Five) insect cells, baculovirus; purified; reconstituted into liposomes for SPR and ELISA
T1 sequence (looked up): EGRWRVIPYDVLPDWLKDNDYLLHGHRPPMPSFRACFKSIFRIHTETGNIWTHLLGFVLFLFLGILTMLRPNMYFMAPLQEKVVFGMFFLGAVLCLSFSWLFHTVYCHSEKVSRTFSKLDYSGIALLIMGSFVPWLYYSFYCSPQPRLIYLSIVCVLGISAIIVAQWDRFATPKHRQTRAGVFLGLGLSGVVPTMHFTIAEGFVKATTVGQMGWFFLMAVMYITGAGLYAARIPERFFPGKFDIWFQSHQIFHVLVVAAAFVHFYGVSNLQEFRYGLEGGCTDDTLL
Assay: SPR; purified AdipoR1Δ88 reconstituted into liposomes (egg yolk PC, biotinyl-PE) and immobilised on a sensor chip SA; osmotin 0.5–8 μM as analyte; Biacore T200
Conditions: both partners purified

B1: osmotin (ligand)
chain: ATIEVRNNCPYTVWAASTPIGGGRRLDRGQTWVINAPRGTKMARVWGRTNCNFNAAGRGTCQTGDCGGVLQCTGWGKPPNTLAEYALDQFSGLDFWDISLVDGFNIPMTFAPTNPSGGKCHAIHCTANINGECPRELRVPGGCNNPCTTFGGQQYCCTQGPCGPTFFSKFFKQRCPDAYSYPQDDPTSTFTCPGGSTNYRVIFCPNGQAHPNFPLEMPGSDEVAK
Kd: 700 nM
